Measurements as given in publication PMC9865026 (Pathogens, 2022).

Key:
Test in all cases: ELISA
Settings in all cases: both partners purified
[1] = target: A/New Caledonia/20/1999 (NC H1N1) recombinant hemagglutinin (HA) (Influenza A virus A/New …, UniProt Q6WG00, strain)
[2] = target: A/California/07/2009 (pH1N1) recombinant hemagglutinin (HA) (Influenza A virus A/California/07/2009 …, UniProt C3W5X2, strain)
[3] = target: A/Aichi/2/68 (H3N2A) recombinant hemagglutinin (HA) (Influenza A virus A/Aichi/2/1968 …, UniProt T2HNI1)
[4] = target: A/Perth/16/2009 (H3N2P) recombinant hemagglutinin (HA) (Influenza A virus A/Perth/16/2009 (H3N2), UniProt C6KNH7, strain)

Measured: binding result

B1: CR6261 human IgG1 possessing a mouse IgG1 hinge (antibody, V domains shown)
VH: EVQLVESGAEVKKPGSSVKVSCKASGGPFRSYAISWVRQAPGQGPEWMGGIIPIFGTTKYAPKFQGRVTITADDFAGTVYMELSSLRSEDTAMYYCAKHMGYQVRETMDVWGKGTTVTVSS
VL: QSVLTQPPSVSAAPGQKVTISCSGSSSNIGNDYVSWYQQLPGTAPKLLIYDNNKRPSGIPDRFSGSKSGTSATLGITGLQTGDEANYYCATWDRRPTAYVVFGGGTKLTVL
notes: also called human IgG1 with a mouse IgG1 hinge; copies: 2 + 2
binds: [1] | [2]

B2: CR6261 human IgG4 (antibody, V domains shown)
VH: EVQLVESGAEVKKPGSSVKVSCKASGGPFRSYAISWVRQAPGQGPEWMGGIIPIFGTTKYAPKFQGRVTITADDFAGTVYMELSSLRSEDTAMYYCAKHMGYQVRETMDVWGKGTTVTVSS
VL: QSVLTQPPSVSAAPGQKVTISCSGSSSNIGNDYVSWYQQLPGTAPKLLIYDNNKRPSGIPDRFSGSKSGTSATLGITGLQTGDEANYYCATWDRRPTAYVVFGGGTKLTVL
notes: also called CR6261 IgG4; source: HEK-293, transfected (pTT5), purified from cell culture supernatant (MabSelect); copies: 2 + 2
binds: [1] | [2]

B3: F045-092 human IgG4 (antibody, V domains shown)
VH: EVQLVESGAEVKKPGSSVKVSCRASGTFYKYAINWVRQAPGQGLEWMGGIIPFFGTTNYAQKFQGRLTITADGSTNTAYMQLDSLRSEDTAVYYCAGPSITESHYCLDCAAKDYYYGLDVWGQGTTVTVSS
VL: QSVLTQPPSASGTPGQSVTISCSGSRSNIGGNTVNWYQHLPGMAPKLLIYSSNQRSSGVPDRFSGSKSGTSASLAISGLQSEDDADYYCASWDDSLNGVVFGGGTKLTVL
notes: also called F045-092 IgG4; source: HEK-293, transfected (pTT5), purified from cell culture supernatant (MabSelect); copies: 2 + 2
binds: [3] | [4]

B4: F045-092 human IgG1 with a mouse IgG1 hinge (antibody, V domains shown)
VH: EVQLVESGAEVKKPGSSVKVSCRASGTFYKYAINWVRQAPGQGLEWMGGIIPFFGTTNYAQKFQGRLTITADGSTNTAYMQLDSLRSEDTAVYYCAGPSITESHYCLDCAAKDYYYGLDVWGQGTTVTVSS
VL: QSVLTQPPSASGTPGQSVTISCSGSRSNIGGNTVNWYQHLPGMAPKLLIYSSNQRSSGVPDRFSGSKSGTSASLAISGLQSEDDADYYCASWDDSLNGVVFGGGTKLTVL
notes: also called human IgG1 with a mouse hinge; copies: 2 + 2
binds: [3] | [4]

B5: FI6 human IgG1 with a mouse IgG1 hinge (antibody, V domains shown)
VH: QVQLVESGGGVVQPGRSLRLSCAASGFTFSTYAMHWVRQAPGKGLEWVAVISYDANYKYYADSVKGRFTISRDNSKNTLYLQMNSLRAEDTAVYYCAKDSQLRSLLYFEWLSQGYFDYWGQGTLVTVSS
VL: not shown
notes: also called VR-analogous human IgG1 with a mouse IgG1 hinge (FI6); copies: 2 + 2
binds: all assays above

B6: FI6 mouse IgG1 (antibody, V domains shown)
VH: QVQLVESGGGVVQPGRSLRLSCAASGFTFSTYAMHWVRQAPGKGLEWVAVISYDANYKYYADSVKGRFTISRDNSKNTLYLQMNSLRAEDTAVYYCAKDSQLRSLLYFEWLSQGYFDYWGQGTLVTVSS
VL: not shown
notes: also called VR-analogous mouse IgG1 (FI6); source: HEK-293, transfected (pTT5), purified from cell culture supernatant (Protein G); copies: 2 + 2
binds: all assays above

B7: FI6 human IgG4 (antibody, V domains shown)
VH: QVQLVESGGGVVQPGRSLRLSCAASGFTFSTYAMHWVRQAPGKGLEWVAVISYDANYKYYADSVKGRFTISRDNSKNTLYLQMNSLRAEDTAVYYCAKDSQLRSLLYFEWLSQGYFDYWGQGTLVTVSS
VL: not shown
notes: also called VR-analogous human IgG4 (FI6); source: HEK-293, transfected (pTT5), purified from cell culture supernatant (MabSelect); copies: 2 + 2
binds: all assays above

B8: FI6 mouse IgG2a (antibody, V domains shown)
VH: QVQLVESGGGVVQPGRSLRLSCAASGFTFSTYAMHWVRQAPGKGLEWVAVISYDANYKYYADSVKGRFTISRDNSKNTLYLQMNSLRAEDTAVYYCAKDSQLRSLLYFEWLSQGYFDYWGQGTLVTVSS
VL: not shown
notes: also called VR-analogous mouse IgG2a (FI6); source: HEK-293, transfected (pTT5), purified from cell culture supernatant (Protein G); copies: 2 + 2
binds: all assays above
